Earlier results on one substance are cited in paper PMC12043044.

The target of this series is Ubiquitin (UniProt P0CG48).

Sla1 SH3-3, sequence (P32790 350-418): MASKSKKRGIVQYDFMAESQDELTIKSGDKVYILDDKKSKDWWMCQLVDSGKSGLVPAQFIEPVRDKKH

As to Sla1 SH3-3 (from UniProt P32790), the Kd is 40 µM.
